Assay results reported in patent publication US20130089544A1.

What was measured:
[1] = target: human ErbB2, full length, on cells (human) (UniProt P04626); test: cell-based or functional assay
[2] = target: human ErbB2 ECD-myc/His fusion protein (human) (UniProt P04626); test: SPR, Biacore T100 high resolution; mAb captured on goat anti-human IgG, hHer-2(ECD)cMyc injected; 1:1 fit

- % Inhibition @10 µg/ml, Heregulin-induced MCF7 cell proliferation [1]: 90%
- EC50 (ng/ml) n1, inhibition of Heregulin-induced ErbB2 phosphorylation in MCF7 cells [1]: 43.6 ng/mL
- EC50 (ng/ml) n2, inhibition of Heregulin-induced ErbB2 phosphorylation in MCF7 cells [1]: 14.6 ng/mL
- EC50 (ng/ml), inhibition of Heregulin-induced MCF7 cell proliferation [1]: 404 ng/mL
- EC50 (ng/ml), inhibition of SKBR3 cell proliferation [1]: > 36000 ng/mL
- N1 % Inhibition @40 µg/ml, BT474 cell proliferation [1]: -9%
- N1 EC50 (ng/ml), inhibition of BT474 cell proliferation [1]: > 40000 ng/mL
- N2 EC50 (ng/ml), inhibition of BT474 cell proliferation [1]: 4750 ng/mL
- Kd [2]: 3.2 nM
Substance: chimeric anti-hErbB2 antibody 2C4
